Data from IntAct's records for PubMed 16938345.

B1: Linker for activation of T-cells family member 1 (Homo sapiens), O43561 (parent)
chain: MEEAILVPCVLGLLLLPILAMLMALCVHCHRLPGSYDSTSSDSLYPRGIQFKRPHTVAPWPPAYPPVTSYPPLSQPDLLPIPRSPQPLGGSHRTPSSRRDSDGANSVASYENEGASGIRGAQAGWGVWGPSWTRLTPVSLPPEPACEDADEDEDDYHNPGYLVVLPDSTPATSTAAPSAPALSTPGIRDSAFSMESIDDYVNVPESGESAEASLDGSREYVNVSQELHPGAAKTEPAALSSQEAEEVEEEGAPDYENLQELN

Variants of: B1
Conditions: with grb2_human GRB2, P62993
Chain of grb2_human GRB2, P62993 (P62993 whole entry, looked up): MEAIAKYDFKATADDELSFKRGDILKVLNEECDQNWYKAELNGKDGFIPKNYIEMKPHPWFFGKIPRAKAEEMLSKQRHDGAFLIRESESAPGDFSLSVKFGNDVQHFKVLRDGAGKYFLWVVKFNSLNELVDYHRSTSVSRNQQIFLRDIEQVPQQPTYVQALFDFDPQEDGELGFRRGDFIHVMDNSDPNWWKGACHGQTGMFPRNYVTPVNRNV
With Y200F;Y220F the “effect of a mutation on the interaction” value was “decreasing interaction”.
